Numbering of substitutions follows the chain as printed.

B1: IgG1-CD134-MEDI0562 (antibody, INN chains, looked up, V domains shown)
VH: QVQLQESGPGLVKPSQTLSLTCAVYGGSFSSGYWNWIRKHPGKGLEYIGYISYNGITYHNPSLKSRITINRDTSKNQYSLQLNSVTPEDTAVYYCARYKYDYDGGHAMDYWGQGTLVTVSS
VL: DIQMTQSPSSLSASVGDRVTITCRASQDISNYLNWYQQKPGKAPKLLIYYTSKLHSGVPSRFSGSGSGTDYTLTISSLQPEDFATYYCQQGSALPWTFGQGTKVEIK
modifications: IgG1
B2: IgG1-CD134-RG7888 (antibody, INN chains, looked up, V domains shown)
VH: EVQLVQSGAEVKKPGASVKVSCKASGYTFTDSYMSWVRQAPGQGLEWIGDMYPDNGDSSYNQKFRERVTITRDTSTSTAYLELSSLRSEDTAVYYCVLAPRWYFSVWGQGTLVTVSS
VL: B1 VL with K53R, H55R, Y71F, S92H, A93T, W96P
modifications: IgG1
B3: IgG1-CD134-ABBV368 (antibody, INN chains, looked up, V domains shown)
VH: EVQLVESGGGLVQPGGSLRLSCAASGFTFSRYGMSWVRQAPGKGLELVATINSNGGRTYYPDSVKGRFTISRDNAKNSLYLQMNSLRAEDTAVYYCAREGITTAYAMDYWGQGTTVTVSS
VL: DIVMTQSPDSLAVSLGERATINCKASQSVDYDGDSYMHWYQQKPGQPPKLLIYAASILESGVPDRFSGSGSGTDFTLTISSLQAEDVAVYYCQQSNEDPRTFGGGTKVEIK
modifications: IgG1
B4: IgG1-CD134-Hu106 (antibody, from another filing, V domains shown)
VH: QVQLVQSGSELKKPGASVKVSCKASGYTFTDYSMHWVRQAPGQGLKWMGWINTETGEPTYADDFKGRFVFSLDTSVSTAYLQISSLKAEDTAVYYCANPYYDYVSYYAMDYWGQGTTVTVSS
VL: DIQMTQSPSSLSASVGDRVTITCKASQDVSTAVAWYQQKPGKAPKLLIYSASYLYTGVPSRFSGSGSGTDFTFTISSLQPEDIATYYCQQHYSTPRTFGQGTKLEIK
B5: IgG1-CD134-GBR830 (antibody, INN chains, looked up, V domains shown)
VH: QVTLKESGPALVKPTQTLTLTCSFSGFSLSTSGMGVGWIRQPPGKALEWIAHIWWDDDKYYNTALKTRLTISKDTSKNQVVLTMTNMDPVDTATYYCARIDWDGFAYWGQGTLVTVSS
VL: EIVLTQSPATLSLSPGERATLSCRASSSVSYMHWYQQKPGQAPRPWIYATSNRATGIPARFSGSGSGTDYTLTISSLEPEDFAVYYCQQWSSNPWTFGQGTKVEIK
modifications: IgG1

For one test, the target named is recombinant human OX40 fused to a His-tag (Acro Biosystems, cat. no. OX0-H5224) (human) (UniProt P43489). The experiment in a line: BLI cross-block; first Ab (competitor): IgG1-CD134-h3C8.
recombinant human OX40 fused to a His-tag (Acro Biosystems, cat. no. OX0-H5224) (human), sequence (P43489 29-214 limits assumed): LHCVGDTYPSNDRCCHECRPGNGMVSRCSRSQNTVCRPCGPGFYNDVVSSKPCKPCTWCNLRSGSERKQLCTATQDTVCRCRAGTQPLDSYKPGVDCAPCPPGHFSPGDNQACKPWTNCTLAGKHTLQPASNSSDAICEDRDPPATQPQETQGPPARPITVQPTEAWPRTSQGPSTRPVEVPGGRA
Regarding B1, the association response came out at 0.54 nm.

As for B2, the association response came to 0.41 nm.

Regarding B3, the association response is -0.03 nm.

Turning to B4, the association response amounted to 0.01 nm.

B5: the association response was -0.02 nm.

The target is the same in the next test. In words: BLI cross-block; first Ab (competitor): IgG1-CD134-SF2.
As for B1, the association response amounted to 0.01 nm.

Take B2: the association response was 0.01 nm.

Take B3: the association response stood at 0.04 nm.

On to B4, for which the association response stood at 0.03 nm.

As for B5, the association response turned out to be 0.19 nm.

The target is the same in the next test. The experiment in a line: BLI cross-block; first Ab (competitor): IgG1-CD134-RG7888.
For B1, the association response came to 0 nm.

With B2, the association response came out at 0.02 nm.

Turning to B3, the association response is 0.02 nm.

Take B4: the association response was found to be 0.02 nm.

Take B5: the association response worked out at 0.61 nm.

A further test has the same target. The experiment in a line: BLI cross-block; first Ab (competitor): IgG1-CD134-A4453.
For B1, the association response was 0.41 nm.

Consider B2, for which the association response was determined as 0.47 nm.

Regarding B3, the association response was determined as 0.29 nm.

With B4, the association response was 0.29 nm.

On to B5, for which the association response was determined as 0.28 nm.

The next test shares this target. In words: BLI cross-block; first Ab (competitor): IgG1-CD134-ABBV368.
As for B1, the association response was -0.02 nm.

B2: the association response was 0.01 nm.

Turning to B3, the association response was -0.04 nm.

Take B4: the association response is -0.01 nm.

For B5, the association response was -0.01 nm.

The target is the same in the next test. The experiment in a line: BLI cross-block; first Ab (competitor): IgG1-CD134-007.
Turning to B1, the association response was found to be 1.14 nm.

With B2, the association response came out at 0.47 nm.

Regarding B3, the association response was 0 nm.

Turning to B4, the association response turned out to be 0.05 nm.

B5: the association response is 0.07 nm.

A further test shares this target. The experiment in a line: BLI cross-block; first Ab (competitor): IgG1-CD134-11D4.
In the case of B1, the association response came to 0.14 nm.

Turning to B2, the association response came out at 0.11 nm.

Take B3: the association response worked out at 0.13 nm.

For B4, the association response was 0.13 nm.

On to B5, for which the association response came out at 0.13 nm.

For a further test the target is unchanged. The experiment in a line: BLI cross-block; first Ab (competitor): IgG1-CD134-IBI101.
For the molecule B1, the association response was 0.28 nm.

Consider B2, for which the association response stood at 0.23 nm.

As to B3, the association response was found to be 0.01 nm.

For the molecule B4, the association response was found to be 0.01 nm.

As to B5, the association response turned out to be 0.02 nm.

The target is the same in a further test. The experiment in a line: BLI cross-block; first Ab (competitor): IgG1-CD134-MEDI0562.
Turning to B1, the association response is 0 nm.

For the molecule B2, the association response turned out to be 0.02 nm.

With B3, the association response is -0.01 nm.

With B4, the association response was 0.31 nm.

Consider B5, for which the association response was 0.33 nm.

A further test has the same target. The experiment in a line: BLI cross-block; first Ab (competitor): IgG1-CD134-Hu106.
B1: the association response amounted to 0.69 nm.

Regarding B2, the association response is 0.1 nm.

For the molecule B3, the association response came to 0 nm.

Consider B4, for which the association response is 0.05 nm.

B5: the association response is 0.02 nm.

For a further test the target is unchanged. In words: BLI cross-block; first Ab (competitor): IgG1-CD134-003.
Consider B1, for which the association response came to 1.39 nm.

Consider B2, for which the association response was determined as 0.66 nm.

With B3, the association response worked out at 1.27 nm.

With B4, the association response is 1.06 nm.

For B5, the association response is 0.97 nm.

For another test the target is unchanged. In words: BLI cross-block; first Ab (competitor): IgG1-CD134-INCAGN1949.
Consider B1, for which the association response stood at 0 nm.

In the case of B2, the association response was 0.02 nm.

Turning to B3, the association response stood at 0.01 nm.

For B4, the association response stood at 0 nm.

For the molecule B5, the association response worked out at 0.01 nm.

For a further test the target is unchanged. The experiment in a line: BLI cross-block; first Ab (competitor): IgG1-CD134-49B4-RRE.
Regarding B1, the association response turned out to be 0.15 nm.

Consider B2, for which the association response amounted to 0.02 nm.

For the molecule B3, the association response came out at 0 nm.

B4: the association response is -0.01 nm.

With B5, the association response came to 0 nm.

The target is the same in another test. The experiment in a line: BLI cross-block; first Ab (competitor): IgG1-CD134-012.
For the molecule B1, the association response turned out to be 0.82 nm.

On to B2, for which the association response came to 0.54 nm.

As to B3, the association response came out at 0.87 nm.

As for B4, the association response is 0.8 nm.

For B5, the association response was 0.84 nm.

A further test shares this target. In words: BLI cross-block; first Ab (competitor): IgG1-CD134-003-HC6LC2-RR.
Consider B1, for which the association response stood at 1.73 nm.

Regarding B2, the association response amounted to 1.38 nm.

As for B3, the association response was 1.68 nm.

Take B4: the association response came to 1.39 nm.

In the case of B5, the association response was found to be 1.08 nm.

Another test has the same target. In words: BLI cross-block; first Ab (competitor): IgG1-CD134-GBR830.
For the molecule B1, the association response is 0.32 nm.

Regarding B2, the association response came out at 0.26 nm.

Regarding B3, the association response is 0.01 nm.

In the case of B4, the association response was found to be 0.01 nm.

In the case of B5, the association response amounted to 0.01 nm.
